The format of data set [1] is in vivo, mice. As for the experimental part:
Supplemental Figure 5. Body weight monitoring following DX600 exposure was conducted in mice for 25 days. The experiment was carried out in 10 mice at 4-weeks of age. The mice were either […]
was repeated on day 0, day 4, day 11, day 18 and day 25, and the weight of the mice was […]
group (n = 5, weight from 26.5 ± 5.2 g to 41.2 ± 3.1 g) and the control group (n = 5, weight from […]

Data set [2] has as its system ACE2. To be noted: cited from earlier work.
In data set [3] the target is T1, ACE2 (Homo sapiens, UniProt Q9BYF1). The data set can be described thus: biochemical.
Target sequence in this assay (Q9BYF1 18-805): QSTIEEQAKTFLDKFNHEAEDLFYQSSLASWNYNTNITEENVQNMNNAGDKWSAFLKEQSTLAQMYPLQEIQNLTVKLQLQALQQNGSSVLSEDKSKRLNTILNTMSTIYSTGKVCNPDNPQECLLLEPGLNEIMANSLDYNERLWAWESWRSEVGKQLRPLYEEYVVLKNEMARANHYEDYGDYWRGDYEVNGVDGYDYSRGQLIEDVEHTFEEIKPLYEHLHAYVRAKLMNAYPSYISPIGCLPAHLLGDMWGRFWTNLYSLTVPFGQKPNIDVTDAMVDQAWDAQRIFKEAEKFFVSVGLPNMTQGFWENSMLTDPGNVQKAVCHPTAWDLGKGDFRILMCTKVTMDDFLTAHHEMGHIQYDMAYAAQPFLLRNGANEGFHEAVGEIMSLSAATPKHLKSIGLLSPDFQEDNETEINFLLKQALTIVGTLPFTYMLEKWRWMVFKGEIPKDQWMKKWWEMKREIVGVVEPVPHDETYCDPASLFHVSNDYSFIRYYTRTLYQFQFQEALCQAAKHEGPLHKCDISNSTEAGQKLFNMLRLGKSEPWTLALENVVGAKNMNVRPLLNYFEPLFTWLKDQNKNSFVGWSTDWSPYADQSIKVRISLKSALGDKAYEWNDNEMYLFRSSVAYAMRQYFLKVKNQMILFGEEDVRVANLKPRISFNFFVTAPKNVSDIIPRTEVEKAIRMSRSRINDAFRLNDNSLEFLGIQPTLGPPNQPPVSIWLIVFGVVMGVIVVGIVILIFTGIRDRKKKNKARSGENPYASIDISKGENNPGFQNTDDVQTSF
Experimental: Briefly, recombinant human ACE2 protein (50 µg mL^−1; BP003061) was immobilized on the surface of the nanogold sensor chip, after the chip was activated by 1‐ethyl‐3‐(3‐dimethylaminopropyl)carbodiimide/N‐hydroxysuccinimide. […] K D, ka and kd were calculated using Trace Drawer Evaluation version 2.0 (Trace Software International, Saint‐Romain, France).
Data set [4] is classed as physicochemical. To be noted: 0.01 M PBS, 37 °C, 50 µL tracer in 450 µL PBS, sampled at 1, 2, 4 h; stated within 2 h. As for the experimental part:
The solution was analyzed by radio‐HPLC to assess the radiochemical purity. The HPLC was eluted with water‐CH3CN system (Phase A: 0.1% TFA H2O; Phase B: 0.1% TFA CH3CN) using gradient elution (0–5 min 20% B; 5–10 min 20%–80% B; 10–12 min 80% B; 12–15 min 80%–20% B) at a flow rate of 1.0 mL min^−1. The radiolabeling yield was 59.9 ± 3.9% (non‐decay corrected, n = 10) and the radiochemical purity was over 95%. […] At 1, 2, and 4 h time points, 10 µL aliquot was analyzed by radio‐HPLC to assess the radiochemical purity.
Supplemental Figure 2. […] (A) Saturation binding assay […]
assay of DX600. (C) hACE2 expression specifically determine the accumulation of 64Cu-HZ20 over HEK293-hACE2 and HEK293-WT cells for 2 h incubation at 37 °C. (D) Stability analysis

Data set [5] deals with T1, ACE2. To be noted: in vivo.
Target sequence in this assay (Q9BYF1 18-805): as above
For data set [6], the target named is T1, ACE2. To be noted: PET/MR 2 h after injection, female volunteers #005 and #012.
Target sequence in this assay (Q9BYF1 18-805): as above
Data set [7] is described as follows: in vivo. To be noted: female, athymic nude, mouse, HepG2 xenograft tumor, iv, 3.7 MBq, total radioactivity.
Experimental: 5 × 10^6 of HepG2 cells were inoculated into the right front shoulder region of the mice to build the xenograft tumor model with ACE2 expression. When the tumor volumes were estimated to be 450–800 mm^3, the mice were used for the studies. […] Scans were performed at 60, 120, and 180 min after administration. […] Subsequently, animals were scanned at 60, 120, and 180 min post‐injection. Regions of interest were defined over tumor, heart, liver, lung, kidney, and muscle and uptake computed relative to the injected activity.
Tumor, heart, liver, lung, kidney and muscle were selected for analysis.
Data set [8] is described as follows: clinical. To be noted: human, in vivo, iv, total radioactivity.
Data set [9] has as its target T1, ACE2. In words: SPR; recombinant human ACE2 (50 ug/mL) immobilised on a nanogold sensor chip activated with EDC/NHS; dilutions of peptide flowed at 20 uL/min for 7 min; Nicoya OpenSPR. (In general: In SPR one partner is held on a chip, and binding of the other changes the refractive index at the surface.)
Target sequence in this assay (Q9BYF1 18-740): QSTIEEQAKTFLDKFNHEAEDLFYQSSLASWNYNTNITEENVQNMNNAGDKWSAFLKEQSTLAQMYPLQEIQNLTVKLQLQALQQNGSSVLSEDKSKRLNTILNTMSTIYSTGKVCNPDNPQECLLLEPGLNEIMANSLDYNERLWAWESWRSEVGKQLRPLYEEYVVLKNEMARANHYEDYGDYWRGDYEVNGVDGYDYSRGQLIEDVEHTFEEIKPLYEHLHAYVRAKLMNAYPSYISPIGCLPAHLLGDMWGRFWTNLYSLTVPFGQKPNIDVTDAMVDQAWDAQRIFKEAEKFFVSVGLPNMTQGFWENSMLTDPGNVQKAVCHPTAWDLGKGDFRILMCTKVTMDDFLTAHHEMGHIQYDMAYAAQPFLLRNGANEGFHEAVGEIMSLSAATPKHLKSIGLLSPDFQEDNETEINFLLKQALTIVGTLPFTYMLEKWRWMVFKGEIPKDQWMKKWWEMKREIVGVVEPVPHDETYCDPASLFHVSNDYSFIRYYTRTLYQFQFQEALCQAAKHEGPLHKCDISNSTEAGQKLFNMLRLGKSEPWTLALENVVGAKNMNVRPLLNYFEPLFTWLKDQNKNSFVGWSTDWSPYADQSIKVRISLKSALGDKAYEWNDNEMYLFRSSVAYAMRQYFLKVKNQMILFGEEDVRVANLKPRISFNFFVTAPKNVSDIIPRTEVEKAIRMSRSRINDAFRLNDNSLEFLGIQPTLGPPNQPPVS

`CC(=O)NCC(=O)N[C@@H](CC(=O)O)C(=O)N[C@@H](Cc1ccc(O)cc1)C(=O)N[C@@H](CO)C(=O)N[C@@H](Cc1cnc[nH]1)C(=O)N[C@H]1CSSC[C@@H](C(=O)N[C@H](C(=O)N[C@@H](Cc2ccc(O)cc2)C(=O)N2CCC[C@H]2C(=O)N[C@@H](CC(=O)O)C(=O)N2CCC[C@H]2C(=O)N[C@@H](CCC(=O)O)C(=O)NCC(=O)NCC(=O)NCC(N)=O)[C@@H](C)O)NC(=O)[C@H](CCCCN)NC(=O)[C@H](Cc2c[nH]c3ccccc23)NC(=O)[C@H](Cc2c[nH]c3ccccc23)NC(=O)[C@@H]2CCCN2C(=O)[C@H](Cc2ccc(O)cc2)NC(=O)[C@H](Cc2ccc(O)cc2)NC(=O)[C@H](CCCNC(=N)N)NC(=O)[C@H](CC(C)C)NC(=O)[C@@H]2CCCN2C(=O)[C@H](CO)NC1=O` [DX600]: the “body weight at start” value in data set [1] (mice 4 weeks old, n = 5, injections day 0, 4, 11, 18, 25) is 26.5 ± 5.2 g. In data set [1] (mice, n = 5, 25 days, injections day 0, 4, 11, 18, 25), the “body weight at end” value is listed as 41.2 ± 3.1 g. Besides, the “body weight versus saline control group” value in [1] (mice, n = 5 per group, 25 days) is on record as “no significant difference”. In data set [2], the “stability to ACE2 catalyzed hydrolysis” value was “stable”.
By Kd is commonly meant the free concentration of one partner at which half of the binding sites on the other are occupied at equilibrium, for simple one-to-one binding. In turn, `CC(C)C[C@@H]1NC(=O)[C@@H]2CCCN2C(=O)[C@H](CO)NC(=O)[C@@H](NC(=O)[C@H](Cc2c[nH]cn2)NC(=O)[C@H](CO)NC(=O)[C@H](Cc2ccc(O)cc2)NC(=O)[C@H](CC(=O)O)NC(=O)CNC(=O)CN2CCN(CC(=O)O)CCN(CC(=O)O)CCN(CC(=O)O)CC2)CSSC[C@@H](C(=O)N[C@H](C(=O)N[C@@H](Cc2ccc(O)cc2)C(=O)N2CCC[C@H]2C(=O)N[C@@H](CC(=O)O)C(=O)N2CCC[C@H]2C(=O)N[C@@H](CCC(=O)O)C(=O)NCC(=O)NCC(=O)NCC(N)=O)[C@@H](C)O)NC(=O)[C@H](CCCCN)NC(=O)[C@H](Cc2c[nH]c3ccccc23)NC(=O)[C@H](Cc2c[nH]c3ccccc23)NC(=O)[C@@H]2CCCN2C(=O)[C@H](Cc2ccc(O)cc2)NC(=O)[C@H](Cc2ccc(O)cc2)NC(=O)[C@H](CCCNC(=N)N)NC1=O` [HZ20] gave a Kd in data set [3] of 100 nM.
Consider `CC(C)C[C@@H]1NC(=O)[C@@H]2CCCN2C(=O)[C@H](CO)NC(=O)[C@@H](NC(=O)[C@H](Cc2c[nH]cn2)NC(=O)[C@H](CO)NC(=O)[C@H](Cc2ccc(O)cc2)NC(=O)[C@H](CC(=O)O)NC(=O)CNC(=O)CN2CCN(CC(=O)O)CCN(CC(=O)O)CCN(CC(=O)O)CC2)CSSC[C@@H](C(=O)N[C@H](C(=O)N[C@@H](Cc2ccc(O)cc2)C(=O)N2CCC[C@H]2C(=O)N[C@@H](CC(=O)O)C(=O)N2CCC[C@H]2C(=O)N[C@@H](CCC(=O)O)C(=O)NCC(=O)NCC(=O)NCC(N)=O)[C@@H](C)O)NC(=O)[C@H](CCCCN)NC(=O)[C@H](Cc2c[nH]c3ccccc23)NC(=O)[C@H](Cc2c[nH]c3ccccc23)NC(=O)[C@@H]2CCCN2C(=O)[C@H](Cc2ccc(O)cc2)NC(=O)[C@H](Cc2ccc(O)cc2)NC(=O)[C@H](CCCNC(=N)N)NC1=O` [^68Ga‐HZ20, metal not drawn], for which the “in vitro stability (radiochemical purity by radio-HPLC)” value in data set [4] is listed as “stable”. This compound gave an SUVmax breast in data set [5] of 2.72. Moreover, the SUVmax testis in data set [5] came out at 5.57. In addition, in data set [5], the blood-brain barrier penetration result was “poor”. The “uptake in immature follicles” value in data set [6] is “no uptake”. In data set [6], the “uptake in stroma of ovary” value is “slight uptake”. In addition, the SUV at 2 h in [7] worked out at 0.099 ± 0.0065 SUV. Also, in data set [7], the tissue uptake per volume at 2 h was 0.56 %ID/mL. The SUV at 1.5 h in data set [8] (female, SUVmax breast) stood at 1.78 ± 0.17 SUV; in data set [8] (female, SUVmax breast, old group) it was 1.35 ± 0.22 SUV; in [8] (female, SUVmax breast, young group), 2.21 ± 0.25 SUV; in data set [8] (female, SUVmax gallbladder), 2.76 SUV; in [8] (female, SUVmax ovary), 2.12 ± 1.42 SUV; in [8] (female, SUVmax renal cortex), 38.8 SUV. Moreover, the SUV at 1.5 h in data set [8] (female, SUVmax uterus) worked out at 2.41 ± 0.34 SUV; in data set [8] (SUVmax conjunctiva) it was 1.71 ± 0.08 SUV; in data set [8] (SUVmax esophagus), 1.63 ± 0.11 SUV; in data set [8] (SUVmax liver), 1.59 ± 0.14 SUV; in [8] (SUVmax nasal) it was 1.91 ± 0.18 SUV; in [8] (SUVmax pancreas), 1.63 ± 0.24 SUV. Besides, the SUV at 1.5 h in data set [8] (SUVmax rectum) was 1.46 ± 0.13 SUV; in data set [8] (SUVmax renal cortex (right kidney in Figure 7)), 25.7 ± 1.39 SUV; in [8] (SUVmax renal cortex, left kidney), 22.2 ± 1.78 SUV; in [8] (SUVmax renal cortex, right kidney, person recovered from COVID-19, 7 months post infection, 90 min), 18.4 SUV; in data set [8] (SUVmax renal medulla), 18.3 ± 1.42 SUV; in data set [8] (male, SUVmax gallbladder), 0.75 SUV. For the same compound, the SUV at 1.5 h in data set [8] (male, SUVmax gallbladder, male recovered from COVID-19, 90 min) was determined as 4.32 SUV; in data set [8] (male, SUVmax left testis) it was 4.58 ± 0.4 SUV; in data set [8] (male, SUVmax left testis, male recovered from COVID-19, 90 min), 8.65 SUV; in data set [8] (male, SUVmax penis), 2 ± 0.25 SUV; in data set [8] (male, SUVmax renal cortex), 23.9 SUV; in [8] (male, SUVmax renal cortex, left kidney, male recovered from COVID-19, 90 min), 11.6 SUV. In addition, the SUV at 1.5 h is 4.51 ± 0.54 SUV in data set [8] (male, SUVmax right testis); 8.79 SUV in data set [8] (male, SUVmax right testis, male recovered from COVID-19, 90 min); 0.48 SUV in data set [8] (male, SUVmax small intestine); 4.46 ± 0.3 SUV in data set [8] (male, SUVmax testis). The SUV in data set [8] (female, SUVmax corpus luteum) was 7.35 SUV.
DOTA-DX600 (peptide): the Kd in data set [9] came out at 100 nM.
The same measure, in the same setting: as for DX600 (peptide), the figure is 98.7 nM.

(Values after publication PMC8373167 (Advanced Science, 2021).)
